Data: the supplement of paper PMC5998384

Legend:
[1] = test system: HeLa Kyoto; assay: solubility in G1/S (NP-40 vs SDS abundance) (log2 ratio); higher = more soluble; conditions: cell cycle stage: G1/S
[2] = test system: HeLa Kyoto; assay: melting temperature (median over replicates), in situ; higher = more thermally stable
[3] = test system: HeLa Kyoto; assay: solubility change mitosis vs G1/S (difference of NP-40 vs SDS log2 ratios) (log2 ratio difference); higher = more soluble in mitosis
[4] = test system: HeLa Kyoto; assay: thermal stability score vs G1/S (z-score of summed log2 fold changes over temperatures); higher = more thermally stable than in G1/S
[5] = cell cycle stage: early G1 (4.5 h after nocodazole release)
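For melting temperature (median over replicates), in situ in this document: HeLa Kyoto cells synchronized by double thymidine or nocodazole block, proteins quantified by TMT10plex mass spectrometry, three independent biological replicates.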
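For solubility change mitosis vs G1/S (difference of NP-40 vs SDS log2 ratios) in this document: synchronized HeLa Kyoto cells (double thymidine block for G1/S, nocodazole release for mitosis), protein amounts in NP-40 versus SDS lysates quantified by mass spectrometry, three biological replicates.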
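For solubility in G1/S (NP-40 vs SDS abundance) in this document: HeLa Kyoto cells arrested at G1/S by double thymidine block, proteins quantified by TMT10plex mass spectrometry in mild NP-40 versus SDS extracts, three biological replicates.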
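For thermal stability score vs G1/S (z-score of summed log2 fold changes over temperatures) in this document: synchronized HeLa Kyoto cells, proteins quantified by TMT10plex mass spectrometry, three biological replicates, mitosis taken 0.5 h after nocodazole release, G1/S directly after double thymidine block.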

Chain of PSMA6 (chain, as listed by the source): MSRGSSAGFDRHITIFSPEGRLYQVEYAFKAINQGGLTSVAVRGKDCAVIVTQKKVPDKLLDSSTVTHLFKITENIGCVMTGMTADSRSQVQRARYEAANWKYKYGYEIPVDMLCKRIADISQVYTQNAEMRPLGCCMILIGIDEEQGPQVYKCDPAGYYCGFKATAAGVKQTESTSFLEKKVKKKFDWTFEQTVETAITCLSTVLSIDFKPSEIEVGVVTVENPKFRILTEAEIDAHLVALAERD
Chain of RABGAP1 (chain, as listed by the source): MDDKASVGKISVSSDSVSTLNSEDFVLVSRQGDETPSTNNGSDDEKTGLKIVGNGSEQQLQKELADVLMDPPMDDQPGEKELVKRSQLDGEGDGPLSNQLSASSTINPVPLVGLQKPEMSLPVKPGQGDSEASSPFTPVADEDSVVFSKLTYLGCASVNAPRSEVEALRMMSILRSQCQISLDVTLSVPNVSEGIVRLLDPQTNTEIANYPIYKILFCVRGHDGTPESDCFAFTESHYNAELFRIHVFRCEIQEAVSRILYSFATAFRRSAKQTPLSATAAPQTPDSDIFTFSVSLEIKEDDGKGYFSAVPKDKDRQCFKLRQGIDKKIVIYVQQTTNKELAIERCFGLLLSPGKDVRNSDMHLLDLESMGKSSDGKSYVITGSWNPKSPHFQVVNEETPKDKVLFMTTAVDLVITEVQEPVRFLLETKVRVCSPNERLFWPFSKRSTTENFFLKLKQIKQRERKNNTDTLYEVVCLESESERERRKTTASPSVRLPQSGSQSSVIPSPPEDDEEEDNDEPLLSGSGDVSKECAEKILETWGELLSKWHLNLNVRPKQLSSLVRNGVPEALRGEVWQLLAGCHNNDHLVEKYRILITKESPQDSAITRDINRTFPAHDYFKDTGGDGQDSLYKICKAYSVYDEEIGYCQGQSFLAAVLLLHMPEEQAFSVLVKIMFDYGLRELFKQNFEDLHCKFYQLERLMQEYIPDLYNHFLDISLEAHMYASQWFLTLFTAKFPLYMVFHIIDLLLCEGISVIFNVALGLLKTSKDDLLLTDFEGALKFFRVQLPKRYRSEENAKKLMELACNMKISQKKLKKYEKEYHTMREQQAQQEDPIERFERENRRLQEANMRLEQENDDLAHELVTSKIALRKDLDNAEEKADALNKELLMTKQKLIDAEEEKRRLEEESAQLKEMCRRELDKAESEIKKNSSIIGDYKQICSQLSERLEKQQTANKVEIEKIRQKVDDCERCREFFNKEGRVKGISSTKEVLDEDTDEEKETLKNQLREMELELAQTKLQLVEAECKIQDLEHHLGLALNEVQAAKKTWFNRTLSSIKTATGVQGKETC
Chain of PUDP (chain, as listed by the source): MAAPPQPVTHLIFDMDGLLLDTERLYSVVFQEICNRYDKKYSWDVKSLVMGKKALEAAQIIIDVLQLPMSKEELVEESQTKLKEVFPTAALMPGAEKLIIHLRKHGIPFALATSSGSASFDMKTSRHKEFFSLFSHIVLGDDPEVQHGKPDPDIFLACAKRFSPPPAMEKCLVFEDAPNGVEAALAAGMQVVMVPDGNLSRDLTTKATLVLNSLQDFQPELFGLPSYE
Chain of PTBP1 (chain, as listed by the source): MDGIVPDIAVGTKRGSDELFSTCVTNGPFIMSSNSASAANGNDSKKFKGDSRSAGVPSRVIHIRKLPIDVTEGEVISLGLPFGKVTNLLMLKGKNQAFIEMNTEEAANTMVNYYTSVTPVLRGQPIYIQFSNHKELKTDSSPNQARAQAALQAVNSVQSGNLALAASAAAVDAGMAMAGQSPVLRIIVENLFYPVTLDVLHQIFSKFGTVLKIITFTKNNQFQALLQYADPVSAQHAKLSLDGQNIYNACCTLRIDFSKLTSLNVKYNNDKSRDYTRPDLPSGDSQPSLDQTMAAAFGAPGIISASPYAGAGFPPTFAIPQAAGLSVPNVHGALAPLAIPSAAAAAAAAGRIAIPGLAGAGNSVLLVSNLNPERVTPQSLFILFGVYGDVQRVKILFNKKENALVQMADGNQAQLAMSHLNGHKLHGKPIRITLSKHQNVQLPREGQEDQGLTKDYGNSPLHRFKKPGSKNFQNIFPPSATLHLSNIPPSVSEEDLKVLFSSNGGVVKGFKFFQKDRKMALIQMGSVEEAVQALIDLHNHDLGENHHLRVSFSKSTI
Chain of SAFB2 (chain, as listed by the source): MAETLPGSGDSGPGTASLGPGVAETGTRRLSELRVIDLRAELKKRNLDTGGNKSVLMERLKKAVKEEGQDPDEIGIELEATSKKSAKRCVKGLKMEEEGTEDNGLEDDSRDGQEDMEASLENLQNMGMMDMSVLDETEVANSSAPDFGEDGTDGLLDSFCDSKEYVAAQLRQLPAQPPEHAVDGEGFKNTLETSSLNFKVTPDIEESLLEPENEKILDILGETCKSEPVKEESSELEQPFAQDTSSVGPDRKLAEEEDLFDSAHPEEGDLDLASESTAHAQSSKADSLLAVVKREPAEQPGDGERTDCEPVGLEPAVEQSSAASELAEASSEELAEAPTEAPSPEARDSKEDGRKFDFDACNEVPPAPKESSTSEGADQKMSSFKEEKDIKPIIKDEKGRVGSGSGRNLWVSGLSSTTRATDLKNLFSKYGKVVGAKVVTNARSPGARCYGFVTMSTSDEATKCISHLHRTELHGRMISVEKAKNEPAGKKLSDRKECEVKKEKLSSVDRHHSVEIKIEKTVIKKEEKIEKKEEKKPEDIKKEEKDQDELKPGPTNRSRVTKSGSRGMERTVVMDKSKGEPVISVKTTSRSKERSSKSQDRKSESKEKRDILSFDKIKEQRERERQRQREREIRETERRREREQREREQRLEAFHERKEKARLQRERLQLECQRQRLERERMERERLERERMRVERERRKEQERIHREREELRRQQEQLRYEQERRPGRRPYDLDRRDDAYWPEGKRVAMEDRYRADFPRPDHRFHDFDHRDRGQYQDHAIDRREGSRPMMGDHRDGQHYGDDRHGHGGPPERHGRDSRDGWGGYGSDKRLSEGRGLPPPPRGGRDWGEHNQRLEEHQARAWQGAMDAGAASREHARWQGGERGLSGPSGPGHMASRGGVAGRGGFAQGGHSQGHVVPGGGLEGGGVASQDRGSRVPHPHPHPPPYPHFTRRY
Chain of NEK7 (chain, as listed by the source): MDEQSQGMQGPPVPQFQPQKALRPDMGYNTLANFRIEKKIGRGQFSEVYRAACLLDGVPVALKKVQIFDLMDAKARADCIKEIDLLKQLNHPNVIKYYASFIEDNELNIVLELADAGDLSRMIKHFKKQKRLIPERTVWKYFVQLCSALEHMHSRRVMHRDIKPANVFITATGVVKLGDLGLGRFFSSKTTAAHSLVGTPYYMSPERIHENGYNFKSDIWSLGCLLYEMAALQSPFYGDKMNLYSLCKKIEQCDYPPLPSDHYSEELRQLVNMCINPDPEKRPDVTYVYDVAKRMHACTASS
Chain of PDCD10 (chain, as listed by the source): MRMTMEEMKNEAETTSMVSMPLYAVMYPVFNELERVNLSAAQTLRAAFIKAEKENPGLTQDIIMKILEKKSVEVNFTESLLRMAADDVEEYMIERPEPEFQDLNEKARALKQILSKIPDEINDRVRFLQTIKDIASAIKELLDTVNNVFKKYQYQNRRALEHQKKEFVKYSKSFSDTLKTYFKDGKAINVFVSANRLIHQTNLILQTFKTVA
Chain of OXSM (chain, as listed by the source): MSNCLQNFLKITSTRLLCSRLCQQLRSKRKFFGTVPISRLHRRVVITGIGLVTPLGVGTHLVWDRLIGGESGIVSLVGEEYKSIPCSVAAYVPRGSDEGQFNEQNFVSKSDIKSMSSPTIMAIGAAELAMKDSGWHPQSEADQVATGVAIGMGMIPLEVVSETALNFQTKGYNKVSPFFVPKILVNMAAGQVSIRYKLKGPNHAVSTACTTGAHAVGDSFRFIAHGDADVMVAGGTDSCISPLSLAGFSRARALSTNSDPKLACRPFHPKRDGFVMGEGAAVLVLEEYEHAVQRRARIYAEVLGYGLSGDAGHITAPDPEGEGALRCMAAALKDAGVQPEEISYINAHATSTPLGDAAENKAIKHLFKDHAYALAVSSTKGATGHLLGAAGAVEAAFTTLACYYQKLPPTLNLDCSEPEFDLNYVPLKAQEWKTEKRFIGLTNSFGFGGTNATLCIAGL
Chain of PPCS (chain, as listed by the source): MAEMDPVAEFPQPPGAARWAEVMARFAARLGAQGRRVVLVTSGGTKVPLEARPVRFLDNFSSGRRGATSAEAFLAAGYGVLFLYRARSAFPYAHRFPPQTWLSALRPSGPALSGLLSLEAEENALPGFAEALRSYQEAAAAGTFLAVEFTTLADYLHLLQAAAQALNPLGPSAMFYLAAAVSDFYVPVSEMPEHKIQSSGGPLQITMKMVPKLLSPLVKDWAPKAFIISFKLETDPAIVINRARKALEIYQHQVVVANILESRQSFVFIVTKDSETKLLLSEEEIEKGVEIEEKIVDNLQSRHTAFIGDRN
Chain of RHOC (chain, as listed by the source): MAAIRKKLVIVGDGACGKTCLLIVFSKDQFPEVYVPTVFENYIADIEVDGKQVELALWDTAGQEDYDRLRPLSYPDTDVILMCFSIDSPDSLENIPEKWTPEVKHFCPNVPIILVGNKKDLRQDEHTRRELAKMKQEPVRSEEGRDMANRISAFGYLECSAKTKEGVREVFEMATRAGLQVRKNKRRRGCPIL
Chain of PHF23 (chain, as listed by the source): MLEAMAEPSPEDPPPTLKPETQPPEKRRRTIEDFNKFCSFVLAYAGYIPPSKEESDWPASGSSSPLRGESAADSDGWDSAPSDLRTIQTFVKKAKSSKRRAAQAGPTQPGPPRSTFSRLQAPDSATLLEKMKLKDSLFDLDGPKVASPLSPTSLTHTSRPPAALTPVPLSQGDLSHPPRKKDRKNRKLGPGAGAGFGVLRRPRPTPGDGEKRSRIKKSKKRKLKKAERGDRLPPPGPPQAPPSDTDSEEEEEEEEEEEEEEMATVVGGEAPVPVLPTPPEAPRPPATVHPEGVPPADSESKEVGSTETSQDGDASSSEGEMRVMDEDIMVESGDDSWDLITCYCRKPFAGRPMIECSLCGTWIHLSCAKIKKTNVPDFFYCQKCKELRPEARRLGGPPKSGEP

Substance | solubility in G1/S (log2) [1] | melting temperature ([2]; cell cycle stage: G1/S) | melting temperature ([2]; cell cycle stage: mitosis) | solubility change mitosis (log2) [3] | thermal stability score [4, 5] | thermal stability score ([4]; cell cycle stage: mitosis)
MYGSARSVGKVEPSSQSPGRSPRLPRSPRLGHRRTNSTGGSSGSSVGGGSGKTLSMENIQSLNAAYATSGPMYLSDHENVGSETPKSTMTLGRSGGRLPYGVRMTAMGSSPNIASSGVASDTIAFGEHHLPPVSMASTVPHSLRQARDNTIMDLQTQLKEVLRENDLLRKDVEVKESKLSSSMNSIKTFWSPELKKERALRKDEASKITIWKEQYRVVQEENQHMQMTIQALQDELRIQRDLNQLFQQDSSSRTGEPCVAELTEENFQRLHAEHERQAKELFLLRKTLEEMELRIETQKQTLNARDESIKKLLEMLQSKGLSAKATEEDHERTRRLAEAEMHVHHLESLLEQKEKENSMLREEMHRRFENAPDSAKTKALQTVIEMKDSKISSMERGLRDLEEEIQMLKSNGALSTEEREEEMKQMEVYRSHSKFMKNKVEQLKEELSSKEAQWEELKKKAAGLQAEIGQVKQELSRKDTELLALQTKLETLTNQFSDSKQHIEVLKESLTAKEQRAAILQTEVDALRLRLEEKETMLNKKTKQIQDMAEEKGTQAGEIHDLKDMLDVKERKVNVLQKKIENLQEQLRDKEKQMSSLKERVKSLQADTTNTDTALTTLEEALAEKERTIERLKEQRDRDEREKQEEIDNYKKDLKDLKEKVSLLQGDLSEKEASLLDLKEHASSLASSGLKKDSRLKTLEIALEQKKEECLKMESQLKKAHEAALEARASPEMSDRIQHLEREITRYKDESSKAQAEVDRLLEILKEVENEKNDKDKKIAELERQVKDQNKKVANLKHKEQVEKKKSAQMLEEARRREDNLNDSSQQLQDSLRKKDDRIEELEEALRESVQITAEREMVLAQEESARTNAEKQVEELLMAMEKVKQELESMKAKLSSTQQSLAEKETHLTNLRAERRKHLEEVLEMKQEALLAAISEKDANIALLELSSSKKKTQEEVAALKREKDRLVQQLKQQTQNRMKLMADNYEDDHFKSSHSNQTNHKPSPDQIIQPLLELDQNRSKLKLYIGHLTTLCHDRDPLILRGLTPPASYNLDDDQAAWENELQKMTRGQLQDELEKGERDNAELQEFANAILQQIADHCPDILEQVVNALEESS [ERC1] | 0.626 | 48.4 °C | 50.1 °C | 0.00205 | 1.35 | 1.65
MYLQVETRTSSRLHLKRAPGIRSWSLLVGILSIGLAAAYYSGDSLGWKLFYVTGCLFVAVQNLEDWEEAIFDKSTGKVVLKTFSLYKKLLTLFRAGHDQVVVLLHDVRDVSVEEEKVRYFGKGYMVVLRLATGFSHPLTQSAVMGHRSDVEAIAKLITSFLELHCLESPTELSQSSDSEAGDPASQS [C17ORF62] | -0.124 | 55 °C | 55.1 °C | -0.128 | -1.46 | -0.834
MYO5A | -0.679 | 51.1 °C | 49.6 °C | 0.167 | 0.0646 | -0.152
MYYKFSGFTQKLAGAWASEAYSPQGLKPVVSTEAPPIIFATPTKLTSDSTVYDYAGKNKVPELQKFFQKADGVPVYLKRGLPDQMLYRTTMALTVGGTIYCLIALYMASQPKNK [COX7A2L] | -0.0362 | 55.7 °C | 52.3 °C | 0.107 | -2.74 | -1.52
NEK7 | 0.62 | 49.1 °C | 49.4 °C | -0.165 | 1.38 | 1.14
NFIC | 0.109 | 56.8 °C | 57.3 °C | 0.0157 | -1.32 | 2.11
NIFK | -1.88 | 51.7 °C | 52.8 °C | 0.784 | 4.37 | 4.42
NOTCH2 | -0.0358 | 50.1 °C | 51 °C | -0.171 | -1.09 | -2.98
NUMA1 | -0.199 | 47.7 °C | 49.7 °C | 0.493 | 5.09 | 8.74
OXSM | -0.149 | 58.8 °C | 61.2 °C | -0.0154 | 0.339 | -0.889
PDCD10 | 0.326 | 49.2 °C | 50.7 °C | -0.0258 | 1.11 | 1.24
PHF3 | -0.532 | 53.2 °C | 53.7 °C | 0.194 | 0.714 | 2.75
PHF5A | -0.51 | 53.8 °C | 52.2 °C | 0.276 | -3.94 | -5.73
PHF23 | 0.107 | 51.1 °C | 53.2 °C | 0.0233 | -0.742 | 0.2
PIK3C2A | -0.334 | 49.3 °C | 48.6 °C | -0.063 | -0.0214 | 0.282
PPCS | 0.249 | 52.1 °C | 52.9 °C | -0.173 | -0.584 | -0.132
PPIH | 0.00262 | 49.9 °C | 49.5 °C | 0.0864 | 1.19 | 0.86
PSMA6 | -0.0362 | 62.9 °C | 60.9 °C | 0.0779 | -1.86 | -3.6
PTBP1 | 0.378 | 49.1 °C | 48.6 °C | 0.0339 | 5.29 | 9.17
PUDP | 0.454 | 54.5 °C | 55.5 °C | -0.0216 | 1.26 | 0.384
RABGAP1 | -0.122 | 50.9 °C | 50.5 °C | -0.111 | -0.113 | -0.37
RALGAPA1 | -0.0986 | 50.2 °C | 50.8 °C | -0.16 | -0.328 | -0.518
RAP1GAP2 | 0.164 | 50.3 °C | 50.3 °C | 0.327 | 0.21 | 0.699
RHOC | 0.0468 | 53.8 °C | 54.8 °C | -0.013 | -0.123 | -1.75
RREB1 | -0.318 | 49.4 °C | 50.8 °C | 0.214 | 0.176 | 1.2
RSBN1L | -0.468 | 54.7 °C | 53.4 °C | 0.0823 | -0.891 | -3.56
RSRC2 | -0.575 | 51.8 °C | 52.2 °C | 0.135 | 2.6 | 0.263
SAFB2 | -0.828 | 50.3 °C | 51.4 °C | 0.345 | 0.782 | 0.916
SEC16A | -0.0963 | 49.4 °C | 49.7 °C | -0.00335 | 0.0465 | 2.03
